# Measured values as given in article PMC5605238.
# T1: Hrq1 (Saccharomyces cerevisiae, UniProt Q05549 1-1077)
# T1 sequence: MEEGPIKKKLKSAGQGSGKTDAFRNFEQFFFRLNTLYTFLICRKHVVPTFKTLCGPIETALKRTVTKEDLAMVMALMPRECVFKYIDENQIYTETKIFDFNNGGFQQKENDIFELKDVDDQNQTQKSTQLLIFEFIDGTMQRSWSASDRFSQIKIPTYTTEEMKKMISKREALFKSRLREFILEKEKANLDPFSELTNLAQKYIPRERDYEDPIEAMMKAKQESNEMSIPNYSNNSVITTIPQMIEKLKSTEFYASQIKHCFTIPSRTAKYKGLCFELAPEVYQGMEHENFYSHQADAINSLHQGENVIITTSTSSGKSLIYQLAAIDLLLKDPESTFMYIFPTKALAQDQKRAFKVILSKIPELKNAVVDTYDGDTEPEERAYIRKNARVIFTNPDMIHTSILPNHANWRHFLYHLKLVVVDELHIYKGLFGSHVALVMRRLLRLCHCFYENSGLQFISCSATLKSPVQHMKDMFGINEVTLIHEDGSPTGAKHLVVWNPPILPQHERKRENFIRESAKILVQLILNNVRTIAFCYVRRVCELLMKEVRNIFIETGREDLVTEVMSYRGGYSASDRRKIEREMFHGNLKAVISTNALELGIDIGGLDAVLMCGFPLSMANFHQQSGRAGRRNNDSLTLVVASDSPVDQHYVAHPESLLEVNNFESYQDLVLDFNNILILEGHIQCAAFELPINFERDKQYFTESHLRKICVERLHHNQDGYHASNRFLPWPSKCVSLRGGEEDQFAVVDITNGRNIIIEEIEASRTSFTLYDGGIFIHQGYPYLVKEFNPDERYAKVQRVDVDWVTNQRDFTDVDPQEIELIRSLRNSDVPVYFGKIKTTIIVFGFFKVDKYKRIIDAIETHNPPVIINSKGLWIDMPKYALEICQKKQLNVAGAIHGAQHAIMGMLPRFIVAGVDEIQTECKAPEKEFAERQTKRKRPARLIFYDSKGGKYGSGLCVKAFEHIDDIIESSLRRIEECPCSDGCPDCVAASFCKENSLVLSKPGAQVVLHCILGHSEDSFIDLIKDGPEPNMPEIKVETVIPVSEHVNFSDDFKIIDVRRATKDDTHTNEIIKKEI
# T2: RecQ4 (Homo sapiens, UniProt O94761 1-1208)
# T2 sequence: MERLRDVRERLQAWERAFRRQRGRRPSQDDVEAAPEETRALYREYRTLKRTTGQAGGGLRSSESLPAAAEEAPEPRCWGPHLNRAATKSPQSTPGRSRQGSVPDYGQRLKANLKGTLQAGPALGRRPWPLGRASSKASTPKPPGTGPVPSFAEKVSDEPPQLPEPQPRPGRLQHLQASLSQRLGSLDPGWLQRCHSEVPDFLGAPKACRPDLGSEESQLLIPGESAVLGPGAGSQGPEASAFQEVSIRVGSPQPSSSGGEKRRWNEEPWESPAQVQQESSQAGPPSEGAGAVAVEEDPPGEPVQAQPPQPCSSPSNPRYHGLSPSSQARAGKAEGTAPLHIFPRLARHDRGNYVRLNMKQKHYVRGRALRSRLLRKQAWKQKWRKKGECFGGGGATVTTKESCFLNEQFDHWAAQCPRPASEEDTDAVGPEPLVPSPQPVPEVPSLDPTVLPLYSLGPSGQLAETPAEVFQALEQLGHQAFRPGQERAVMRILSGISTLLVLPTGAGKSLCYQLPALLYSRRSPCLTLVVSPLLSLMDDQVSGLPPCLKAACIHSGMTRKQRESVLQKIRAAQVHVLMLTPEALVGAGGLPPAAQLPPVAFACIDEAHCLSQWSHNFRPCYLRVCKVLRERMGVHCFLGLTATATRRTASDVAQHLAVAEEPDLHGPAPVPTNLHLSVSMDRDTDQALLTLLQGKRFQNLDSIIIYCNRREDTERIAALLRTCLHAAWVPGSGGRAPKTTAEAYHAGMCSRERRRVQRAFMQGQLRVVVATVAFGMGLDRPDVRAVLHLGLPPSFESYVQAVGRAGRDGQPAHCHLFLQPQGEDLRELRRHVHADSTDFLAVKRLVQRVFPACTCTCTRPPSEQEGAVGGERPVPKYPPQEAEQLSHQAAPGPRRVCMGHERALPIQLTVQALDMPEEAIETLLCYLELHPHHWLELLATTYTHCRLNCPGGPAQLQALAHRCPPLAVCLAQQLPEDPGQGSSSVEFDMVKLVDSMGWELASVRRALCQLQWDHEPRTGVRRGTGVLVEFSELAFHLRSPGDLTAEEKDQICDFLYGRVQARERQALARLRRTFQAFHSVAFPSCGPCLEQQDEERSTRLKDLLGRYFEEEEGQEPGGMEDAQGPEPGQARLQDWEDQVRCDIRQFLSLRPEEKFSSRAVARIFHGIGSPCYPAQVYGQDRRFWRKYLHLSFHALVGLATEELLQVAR
# Tests used:
# Hrq1 = target: T1, Hrq1; test: EMSA
# RecQ4 = target: T2, RecQ4; test: EMSA
Binder,Kd (Hrq1) [nM],Kd (RecQ4) [nM]
Poly(dT) Fork (dsDNA) DNA 1: TTTTTTTTTTTTTTTTTTTTTTTTTGTGTCACTCACATAGCGTTC DNA 2: GAACGCTATGTGAGTGACACTTTTTTTTTTTTTTTTTTTTTTTTT,6.5 ± 0.5,50.9 ± 10.4
25-nt Random Fork (dsDNA) DNA 1: ACCGTTGTGCAACTGAGTGGACAACGTGTCACTCACATAGCGTTC DNA 2: GAACGCTATGTGAGTGACACCAACAGGTGAGTCAACGTGTTGCCA,–,108 ± 32.5
3' tail (dsDNA) DNA 1: GAACGCTATGTGAGTGACACCAACAGGTGAGTCAACGTGTTGCCA DNA 2: GTGTCACTCACATAGCGTTC,141 ± 59.4,21.8 ± 4.2
5' tail (dsDNA) DNA 1: ACCGTTGTGCAACTGAGTGGACAACGTGTCACTCACATAGCGTTC DNA 2: GAACGCTATGTGAGTGACAC,154 ± 44.6,102 ± 29.4
G4 (structured_DNA) DNA: AAAGGGGGAGCTGGGGTAGATGGGAATGTGAGGGCAACAGGTGAGTCAACGTGTTGCCA,17.6 ± 2.2,12.3 ± 2.5
TTTTTTTTTTTTTTTTTTTTTTTTTTTTTTTTTTTTTTTT (ssDNA) [Poly(dT) 40mer ssDNA],3.45 ± 0.19,2.38 ± 0.15
Yeast Tel Fork (Poly(TG1-3) Fork) (dsDNA) DNA 1: GGTGTGGTGTGGGTGTGGTGTGGGTGTGTCACTCACATAGCGTTC DNA 2: GAACGCTATGTGAGTGACACTGGGTGTGGTGTGGGTGTGGTGTGG,3.5 ± 0.4,18.5 ± 3.1
D-loop (structured_DNA) DNA 1: GGGTGAACCTGCAGGTGGGCGGCTGCTCATCGTAGGTTAGTGGTAGAATTCGGCAGCGTC DNA 2: GACGCTGCCGAATTCTACCATGCCTTGCTAGGACATCTTTGCCCACCTGCAGGTTCACCC DNA 3: TAAGAGCAAGATGTTCTATAAAAGATGTCCTAGCAAGGCA,9.9 ± 0.7,12.6 ± 1.8
Bubble (dsDNA) DNA 1: GGTGAACCTGCAGGTGGGCGGCTGCTCATCGTAGGTTAGTTGGTAGAATTCGGCAGCGTC DNA 2: GACGCTGCCGAATTCTAGGTTGATTGGATGCTACTCGTCGGCGCCACCTGCAGGTTCACC,36.1 ± 4.9,16.8 ± 2.3
Human Tel Fork (Poly(TTAGGG) Fork) (dsDNA) DNA 1: TTAGGGTTAGGGTTAGGGTTAGGGTGTGTCACTCACATAGCGTTC DNA 2: GAACGCTATGTGAGTGACACTTAGGGTTAGGGTTAGGGTTAGGGT,15.7 ± 1.7,39.7 ± 8.3
Holliday junction (HJ) (structured_DNA) DNA 1: GACGCTGCCGAATTCTGGCTTGCTAGGACATCTTTGCCCACGTTGACCC DNA 2: TGGGTCAACGTGGGCAAAGATGTCCTAGCAATGTAATCGTCTATGACGTT DNA 3: CAACGTCATAGACGATTACATTGCTAGGACATGCTGTCTAGAGACTATCGA DNA 4: ATCGATAGTCTCTAGACAGCATGTCCTAGCAAGCCAGAATTCGGCAGCGT,79.2 ± 22.7,90.1 ± 23.4
